Measured values as given in paper doi:10.1101/400432, “The deadly touch: protein denaturation at the water-air interface and how to prevent it” (bioRxiv, 2018).

Legend:
[1] = target: the molecule itself; assay: cryo-EM structure; single-particle cryo-EM of purified FAS complex (0.2 mg/ml) on Quantifoil R0.6/1 grids coated with graphene hydrophilized with 1-pyrCA; about 28,000 particles; maps at 4.8 Å (C1) and 4.0 Å (D3)
[2] = target: T1, fatty acid synthase subunit encoded by FAS1, twinStrep-II tagged (Saccharomyces cerevisiae) (S. cerevisiae, UniProt P07149 1-2051); assay: as above; conditions: both partners purified
T1 construct: Fatty acid synthase subunit encoded by the FAS1 gene, S. cerevisiae; expressed from plasmid pMF639 (pRS315_FAS1-twinStrep-II); also called strep-tagged FAS; beta (beta-domes)
T1 sequence (P07149 whole entry): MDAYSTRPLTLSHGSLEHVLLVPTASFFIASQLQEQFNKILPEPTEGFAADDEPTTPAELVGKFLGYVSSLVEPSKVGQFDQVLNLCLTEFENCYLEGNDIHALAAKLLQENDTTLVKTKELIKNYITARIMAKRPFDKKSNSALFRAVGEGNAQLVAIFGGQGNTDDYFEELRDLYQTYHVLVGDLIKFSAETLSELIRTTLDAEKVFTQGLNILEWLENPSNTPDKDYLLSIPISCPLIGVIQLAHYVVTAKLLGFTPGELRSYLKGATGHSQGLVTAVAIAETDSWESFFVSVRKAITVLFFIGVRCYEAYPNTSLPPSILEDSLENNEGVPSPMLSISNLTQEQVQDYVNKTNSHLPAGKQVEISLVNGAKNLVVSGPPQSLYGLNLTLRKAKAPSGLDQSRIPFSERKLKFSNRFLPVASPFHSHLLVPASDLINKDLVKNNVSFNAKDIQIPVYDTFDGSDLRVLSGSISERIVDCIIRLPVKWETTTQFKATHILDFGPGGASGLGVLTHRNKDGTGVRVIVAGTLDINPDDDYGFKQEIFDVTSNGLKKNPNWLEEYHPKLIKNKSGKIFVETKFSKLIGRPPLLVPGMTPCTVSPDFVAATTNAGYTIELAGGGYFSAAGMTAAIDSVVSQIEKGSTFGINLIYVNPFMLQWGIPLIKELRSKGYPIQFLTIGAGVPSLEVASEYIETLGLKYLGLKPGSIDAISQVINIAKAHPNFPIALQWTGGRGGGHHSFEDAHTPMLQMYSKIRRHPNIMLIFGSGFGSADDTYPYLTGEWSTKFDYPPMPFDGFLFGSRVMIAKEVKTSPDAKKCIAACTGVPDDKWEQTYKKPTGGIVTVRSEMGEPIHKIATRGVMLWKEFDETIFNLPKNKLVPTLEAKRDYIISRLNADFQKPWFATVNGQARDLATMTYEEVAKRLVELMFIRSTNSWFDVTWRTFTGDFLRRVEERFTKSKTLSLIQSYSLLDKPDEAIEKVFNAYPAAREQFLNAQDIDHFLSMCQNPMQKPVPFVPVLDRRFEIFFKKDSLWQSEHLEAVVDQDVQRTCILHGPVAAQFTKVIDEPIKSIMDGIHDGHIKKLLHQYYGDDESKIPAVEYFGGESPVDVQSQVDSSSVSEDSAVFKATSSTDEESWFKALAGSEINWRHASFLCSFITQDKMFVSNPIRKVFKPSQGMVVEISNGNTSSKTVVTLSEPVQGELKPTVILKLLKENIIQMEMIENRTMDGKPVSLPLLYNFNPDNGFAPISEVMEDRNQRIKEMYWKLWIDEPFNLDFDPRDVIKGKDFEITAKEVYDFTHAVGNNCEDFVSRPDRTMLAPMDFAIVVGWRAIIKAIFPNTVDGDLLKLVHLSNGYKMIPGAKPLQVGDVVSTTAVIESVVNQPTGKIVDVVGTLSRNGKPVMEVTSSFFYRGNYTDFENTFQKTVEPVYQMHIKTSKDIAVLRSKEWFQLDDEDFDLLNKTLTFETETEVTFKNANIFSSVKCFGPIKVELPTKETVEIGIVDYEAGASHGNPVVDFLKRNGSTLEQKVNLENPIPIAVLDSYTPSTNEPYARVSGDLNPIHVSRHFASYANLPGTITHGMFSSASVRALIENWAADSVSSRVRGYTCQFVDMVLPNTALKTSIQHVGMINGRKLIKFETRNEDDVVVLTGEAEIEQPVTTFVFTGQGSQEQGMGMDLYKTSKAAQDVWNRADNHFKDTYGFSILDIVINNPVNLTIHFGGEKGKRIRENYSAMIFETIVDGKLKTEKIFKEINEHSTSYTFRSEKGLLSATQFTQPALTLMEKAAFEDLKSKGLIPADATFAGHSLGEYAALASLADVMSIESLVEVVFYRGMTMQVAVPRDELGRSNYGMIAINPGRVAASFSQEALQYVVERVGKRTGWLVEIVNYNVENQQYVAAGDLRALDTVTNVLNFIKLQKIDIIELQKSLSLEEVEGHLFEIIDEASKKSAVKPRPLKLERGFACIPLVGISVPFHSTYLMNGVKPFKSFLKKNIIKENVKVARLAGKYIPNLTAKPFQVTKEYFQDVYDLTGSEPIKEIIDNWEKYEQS

B1: fatty acid synthase subunit encoded by FAS2 (Saccharomyces cerevisiae) (enzyme, S. cerevisiae, UniProt P19097 1-1887, looked up)
chain: MKPEVEQELAHILLTELLAYQFASPVRWIETQDVFLKDFNTERVVEIGPSPTLAGMAQRTLKNKYESYDAALSLHREILCYSKDAKEIYYTPDPSELAAKEEPAKEEAPAPTPAASAPAPAAAAPAPVAAAAPAAAAAEIADEPVKASLLLHVLVAHKLKKSLDSIPMSKTIKDLVGGKSTVQNEILGDLGKEFGTTPEKPEETPLEELAETFQDTFSGALGKQSSSLLSRLISSKMPGGFTITVARKYLQTRWGLPSGRQDGVLLVALSNEPAARLGSEADAKAFLDSMAQKYASIVGVDLSSAASASGAAGAGAAAGAAMIDAGALEEITKDHKVLARQQLQVLARYLKMDLDNGERKFLKEKDTVAELQAQLDYLNAELGEFFVNGVATSFSRKKARTFDSSWNWAKQSLLSLYFEIIHGVLKNVDREVVSEAINIMNRSNDALIKFMEYHISNTDETKGENYQLVKTLGEQLIENCKQVLDVDPVYKDVAKPTGPKTAIDKNGNITYSEEPREKVRKLSQYVQEMALGGPITKESQPTIEEDLTRVYKAISAQADKQDISSSTRVEFEKLYSDLMKFLESSKEIDPSQTTQLAGMDVEDALDKDSTKEVASLPNKSTISKTVSSTIPRETIPFLHLRKKTPAGDWKYDRQLSSLFLDGLEKAAFNGVTFKDKYVLITGAGKGSIGAEVLQGLLQGGAKVVVTTSRFSKQVTDYYQSIYAKYGAKGSTLIVVPFNQGSKQDVEALIEFIYDTEKNGGLGWDLDAIIPFAAIPEQGIELEHIDSKSEFAHRIMLTNILRMMGCVKKQKSARGIETRPAQVILPMSPNHGTFGGDGMYSESKLSLETLFNRWHSESWANQLTVCGAIIGWTRGTGLMSANNIIAEGIEKMGVRTFSQKEMAFNLLGLLTPEVVELCQKSPVMADLNGGLQFVPELKEFTAKLRKELVETSEVRKAVSIETALEHKVVNGNSADAAYAQVEIQPRANIQLDFPELKPYKQVKQIAPAELEGLLDLERVIVVTGFAEVGPWGSARTRWEMEAFGEFSLEGCVEMAWIMGFISYHNGNLKGRPYTGWVDSKTKEPVDDKDVKAKYETSILEHSGIRLIEPELFNGYNPEKKEMIQEVIVEEDLEPFEASKETAEQFKHQHGDKVDIFEIPETGEYSVKLLKGATLYIPKALRFDRLVAGQIPTGWNAKTYGISDDIISQVDPITLFVLVSVVEAFIASGITDPYEMYKYVHVSEVGNCSGSGMGGVSALRGMFKDRFKDEPVQNDILQESFINTMSAWVNMLLISSSGPIKTPVGACATSVESVDIGVETILSGKARICIVGGYDDFQEEGSFEFGNMKATSNTLEEFEHGRTPAEMSRPATTTRNGFMEAQGAGIQIIMQADLALKMGVPIYGIVAMAATATDKIGRSVPAPGKGILTTAREHHSSVKYASPNLNMKYRKRQLVTREAQIKDWVENELEALKLEAEEIPSEDQNEFLLERTREIHNEAESQLRAAQQQWGNDFYKRDPRIAPLRGALATYGLTIDDLGVASFHGTSTKANDKNESATINEMMKHLGRSEGNPVIGVFQKFLTGHPKGAAGAWMMNGALQILNSGIIPGNRNADNVDKILEQFEYVLYPSKTLKTDGVRAVSITSFGFGQKGGQAIVVHPDYLYGAITEDRYNEYVAKVSAREKSAYKFFHNGMIYNKLFVSKEHAPYTDELEEDVYLDPLARVSKDKKSGSLTFNSKNIQSKDSYINANTIETAKMIENMTKEKVSNGGVGVDVELITSINVENDTFIERNFTPQEIEYCSAQPSVQSSFAGTWSAKEAVFKSLGVKSLGGGAALKDIEIVRVNKNAPAVELHGNAKKAAEEAGVTDVKVSISHDDLQAVAVAVSTKK
notes: Fatty acid synthase subunit encoded by the FAS2 gene, S. cerevisiae; expressed from plasmid pMF319d (pRS313_FAS2); also called alpha (alpha wheel)
B1: binds [1]; binds [2].
